This note sets out measurements from PMC2150824 (The Journal of Cell Biology, 2001).

The target in data set [1] is F-actin (rabbit skeletal muscle actin) (rabbit, UniProt P68135 1-377). Briefly: co-sedimentation.
The data set “SEC” deals with the molecule itself. Briefly: SEC.

B1: yeast coronin (natural protein)
chain: MSGKFVRASKYRHVFGQAAKKELQYEKLKVTNNAWDSNLLKTNGKFIAVNWNASGGGAFAVIPIEEVGKAPDQVPLFRGHTAQVLDTDFDPFNDHRIASGSDDSKIGIWDIPENYKFHDHVDEDGEPIDIKPVKFLTGHARKVGHVLYHPVAENVLASSSGDYTVKLWNVETGKDMITLKHPDMVTSMSFSYDGNYLATVARDKKLRVWNIREEKIVSEGPAHTGAKNQRVVWLGNSDRLATTGFSKLSDRQIGIWDAFNIEKGDLGGFYTVDQSSGILMPFYDEGNKILYLVGKGDGNIRYYEFQNDELFELSEFQSTEAQRGFAVAPKRMVNVKENEVLKGFKTVVDQRIEPVSFFVPRRSEEFQEDIYPDAPSNKPALTAEEWFSGKSVEGPILVSMRSIYDGSAPSFHEAKRPQQPTTQETALEEKKEQPKVEKPISESEKEVKQEAPKSPSPLKSASSSSTINHVLKEDNSINKLLKKSSDIDQVNNAEDPSRDTSGWEEADDEPAPIKIETPVTPTETKKDRTPKVEPSKELKPEPVSIATDRKQEQSLPQEEKSSEKTKSPEQEKSATPPSSITAAKTAITASSKEEPSAARTSPKSLGLKKSVEKLSTLVLQLEDVVDKLTKANLDKDERLLKLEQKIGELSK
For B1, the binding result in data set [1] is “binds”.

B2: endogenous Hip1R stripped from CCVs with 0.5 M Tris-HCl (natural protein, UniProt Q9JKY5 1-1068, looked up)
chain: MNSIKNVPARVLSRRPGHSLEAEREQFDKTQAISISKAINSQEAPVKEKHARRIILGTHHEKGAFTFWSYAIGLPLSSSSILSWKFCHVLHKVLRDGHPNVLHDYQRYRSNIREIGDLWGHLRDQYGHLVNIYTKLLLTKISFHLKHPQFPAGLEVTDEVLEKAAGTDVNNIFQLTVEMFDYMDCELKLSESVFRQLNTAIAVSQMSSGQCRLAPLIQVIQDCSHLYHYTVKLMFKLHSCLPADTLQGHRDRFHEQFHSLKNFFRRASDMLYFKRLIQIPRLPEGPPNFLRASALAEHIKPVVVIPEEAPEEEEPENLIEISSAPPAGEPVVVADLFDQTFGPPNGSMKDDRDLQIENLKREVETLRAELEKIKMEAQRYISQLKGQVNGLEAELEEQRKQKQKALVDNEQLRHELAQLKALQLEGARNQGLREEAERKASATEARYSKLKEKHSELINTHAELLRKNADTAKQLTVTQQSQEEVARVKEQLAFQMEQAKRESEMKMEEQSDQLEKLKRELAARAGELARAQEALSRTEQSGSELSSRLDTLNAEKEALSGVVRQREAELLAAQSLVREKEEALSQEQQRSSQEKGELRGQLAEKESQEQGLRQKLLDEQLAVLRSAAAEAEAILQDAVSKLDDPLHLRCTSSPDYLVSRAQAALDSVSGLEQGHTQYLASSEDASALVAALTRFSHLAADTIVNGAATSHLAPTDPADRLMDTCRECGARALELVGQLQDQTVLPRAQPSLMRAPLQGILQLGQDLKPKSLDVRQEELGAMVDKEMAATSAAIEDAVRRIEDMMSQARHESSGVKLEVNERILNSCTDLMKAIRLLVMTSTSLQKEIVESGRGAATQQEFYAKNSRWTEGLISASKAVGWGATQLVESADKVVLHMGKYEELIVCSHEIAASTAQLVAASKVKANKNSPHLSRLQECSRTVNERAANVVASTKSGQEQIEDRDTMDFSGLSLIKLKKQEMETQVRVLELEKTLEAERVRLGELRKQHYVLAGGMGTPSEEEPSRPSPAPRSGATKKPPLAQKPSIAPRTDNQLDKKDGVYPAQLVNY
As to B2, in “SEC”, the “stoichiometry N” value is 2.
